Results: the DeepSol protein solubility set

Assay: soluble on expression in E. coli; label from the status in PepcDB or PDB records

Row | Sequence | soluble on expression in E. coli
1 | MSLSDVAKKVGVSPITISRALRNPEIVSEDLRQTILRTVDEMGYIPNLAARALAGRHNGTVGVITPALHQHGFAGLMLGIEDRLRATEFGVQYSNTLHHADGEAGQLKSFLMQKPAGVIIAGAESYHDLLPLIEKAACPIAHITDLSQEPERLVVGLDHHAAGAEPTRFLLSRGYQRIGFIGGGTDVRSRRRREGYEAAMREAGRFDPDLAIGADAAGTTGLGRELLTRLLARVPDIDAVFAQNDELALGVLIECGVRGIRVPENFGICGFNDLEFSAFTEPSLTTVHIPRYEVGYRVADMLLRAVRSEPPGEEKVDCGFSVIPRGSTREGHHHHHH | soluble
2 | IPLPEQPGGSSDFIAFTDKAKLTFTTSRPMKMVYTLDETEPTLTSTPYTVPLEFAQTGLLKIRTVTAGGKMSPVRRIRVEKQPFNMSMEVPAPKPGLTIRTAYGDLYDVPDLQQVASWEVGTVSSLEEIMHGKEKITSPEVLERRVVEATGYVLIPEDGVYEFSTENNEFWIDNVKLIDNVGEVKKFSRRNSSRALQKGYHPIKTIWVGAIQGGWPTYWNYSRVMIRLKGEEKFKPISSDMLFQ | not soluble
3 | SSDKDDIETPLLTEAAPILEDGNCEPAKNSESVDQGAKPESKSEPVVSTRKRPETKPSSDLETSKVLPIQDNVSKDVPQTRWGYWGSWGKSILSSASATVATVGQGISNVIEKAETSLGIPSPSEISTEVKYVAGETNAKENENSSPVAGAFGVFSTISTAVQSTGKSVISGGLDALEFIGKKTMDVIAEGDPGFKRTKGLMNRNATLSQVLREAKEKEEIRTSNEVTVETDKKTHYGLLFDEFQGLSHLEALEMLSQESEIKVKSILNSLSGEELETLKVELEQLKETFSLAEFCEEEEEEKKGDEDFTKDITELFSQLHVSSKPEKLARARNTAHEWIRKSLTKPLAENEEGEKQSEAENTEQVNKNSIEDIHAFAIRSLAELTACSIELFHKTAALVLHGRKQEVTAIERSQTLSQMTIVLCKELSSLSKEFTTCLTTAGVKEMADVLNPLITAVFLEASNSASYIQDAFQLLLPVLEISLIENKIESHRHELQGQKPLLEH | soluble
4 | RPVWYGDPISTSTSHRDLMLVVDLSYSMSQEDMQSGQQMVDRLTAVKQVLSEFIAKREGDRIGLILFADHAYLQTPLTLDRQTVANQLNQTVLKLIGTQTAIGEGIGLATKTFIDSDAPQRVMILLSDGSNTAGVLDPLEAANIAKQYNTTIYTVGVGAGEMVVKDFLFSRKVNTAQDLDEKTLQTIATTTGGHYFRARNQQDLQNIYDTINQLEPISQSN | not soluble
5 | MTTQNELLNRIAELETKVAFQDNVIEELNQVLIHHQFVLDKLQTQVRHFANKFKNIQSSNVASQAEETPPPHY | soluble
6 | MRVMAKIELLAKFTQIALPNSHPLLKKVLNYAKKHFSQCHMLSSSLLILNDTECFKKNYLLNWVYHALECVHEKDISAHSLEEVLQKSHLPIRIKIMAQNTLLEKIEVKVLTFGAEYALFITKHPIAKRFLRQKFSGCVFLETQDELHIRGDSERFWELIVTLNENRIVHNACLDFIYPNGFGKDSYTTMAERKLKECYKTLGFIKHEDFSEVKKRYLELAKTYHPDLCDLKEKKALYAKRFAIIQEAYRHIKKHALEHHHHHH | soluble
7 | MKHFRKELWFETRQRRQFINITPTVRECLRESGIREGLLLCNAMHITASVFINDDESGLHHDFEVWLEGLAPEKPYDRYRHNGYEDNADAHLKRTVMGREVVVAVTAGELDLGPWEQIFYGEFDGKRRKRVLIKIIGELEHHHHHH | not soluble
8 | MSLKDSGILFVDDDILFLALLRECFMQRGIVIQCAENGEDALQMIQQRPFALLLTDLQMPGMDGLELAGKARKLMPDLPIVLCTGAVTPEVCALAEEIGIAQVVRKPIRFSELFAIVGNIVSLQQTEGHHHHHH | soluble
9 | MSQYIYELEMKVRDYECDLQGIVNNANYQHYLEHTRHEFLTSVGVSFAALHEQGVDPVVARINMAFKTPLKSGDEFVSKLYMKKEGIKYVFYQDIFRKSDQKVVVKSTVETVCVVNGRLSNSELFDNVFAPYLK | not soluble
10 | MREVEPLAERLRPRSLDEVLGQPHLTGPQGLLRRMLEAGRLSSMVLFGPPGTGKTTLARLLAEGVGRPFLRLSAVEAGLKEVRQAVEEARAKGGLVLFLDEVHRFNKAQQDALLPHLESGLLTLIGATAENPAFALVPALRSRLRFFPLRPLEEADLLALLRRALEDPRGLPGTPYEEEALRVLAQAAGGDARFALNTLELAASFGRVDLKSVREALGAERFGMDREGDRFYDLVSALHKSLRGSHVDAALYYLARLLQGGADPRYLARRLIRVAVEDVGLADPLALRLAVAAKEAYEALGSPEGELALVEAAVYLALAPKSNSLYAAWKKAQEAAKAHPEAEVPLNLRNAPTGLARALGHGEGYAYYHEDKEGSFAQRYLPEGLEGLTLFEATGEGWEERVRERLKALRERFQTARRRRG | soluble
11 | MERGPLIFSASIGNGHNQAAKALQVEFQNKGYQPEIIDTFYSLSPALHKFMLTSYVNLLKVGPRIWQKIYFQAEKYPLFLFLDQFATFFVESLHATVKSNRCSFLVSTHPFVTAFLVRLKSKKQLNLPLYTVITDFVLHPAYLRPEIDGYFTSDPNFTDFAKLNNVSDDRFFPTGIPIPNLESIDQPKWKVRNDLGLDPQRKVLIIAGGGIGLTNYAQVIRALECLPEPIQLLCMIGHNYQVKEKISRIKSKHELKVIEFTDKFLLYLKASDAILSKAGGLTMAESLVCETPIIIHQPVPGHEEHNAKFLIDAGAALRVKGSKEIPTTIKRVLYEEACFGPMIENARKLKKPNAANEIVEQMLLLVKEQQHAFRLEHHHHHH | soluble
12 | MGSDKIHHHHHHMVDVKRNIFLILDDRELTSEEVRSLVGTRRYSEISLKRRSLLEHLRAALPAWAQTRLVHIKDNNDVVALRNVLESCGEQSPALVIAGRAGFLQPERLTQLIERLPYAEEDFTDRLYRPLLVYLKSVHDLHSCWQQFEAEPLHLWPKAWQDCQRLESLEPLDLARIRDFLTFTGGATATRHFNEVLIDNYYYTKRSSDKQKMLAEYSFYGLAPESMRPWLIQPFEFREEGGGASYKMLRYFLADAALQWVHGAFDRDTFMAFIERLLFFIAERPRKACAREESAAVARDMFVTKVSARIEAFLAMEEGRRINALAASASPMLDVQAMLKRYLALYQRHERAFAFDYMVVGHGDPCFSNVLYDQQRYLLKLIDPKGAATEADLWTNPLYDLCKISHSVLGDYDFINNGLYRVGFTDANALKLAFSHRNHDDLKPIFSSLVGKMGMDYRIMRLGEASLFLSMLPLHIDYPNKILAFMLKAHEILREVEGEARV | not soluble
13 | MEKPHVVSLIGGFGYREPIFRKVLTTAMLDPGINYTLISGPSLDPSKLGGVPKNVRILNFVEDTYPYIKSSDAVIAPGGHSTIMEALSFGVPILSFPDEGHSEQESNAAVVEEEGYGRMLSYSTPPEVILECIREVIEDEAYRNKVERLQRLSGELEHHHHHH | not soluble
14 | MSETFTSVSQEEAGFRERARLSFDLDADICVIGAGLAGLSIALEAARLGASVAVLEGRHIGWNASGNQLGTVMPGFALPLTDLIERIGFEDARELWTLSKEGAEFVRANATEENMPGIAPSDGVLEVSNVDTGDRLISRLQMLHEDFDTEVEGWQVDRVRDVLKTDRYFHGVYYPKAFQVDGRKYVHGLAALARRAGARIFEDTPVVSIDHSGIRKRIVTPSARLRATHIVLAGNIHLGAPLRRLSETLLPVWRYAGITAPLGERVHEIIAFKGSVMDSDGVDHFRIVDGDRLMWESPETTWAARPQRFAGGVRRRIRSIFPQFGNVEIADMFGGATGQTVHGMPQIGQLRKGLWVASGFGRQGMNTSAMAGQMIARSILWGDERWRLFSPFELVWAGGATGRVAGQLVGIWGRASSAAAGTLARYRERARVKDREREARLAEANRAAGTGPRRPPPGVRPRPAPPPKPATEALEPASHDDSVSQLEHHHHHH | not soluble
15 | MSRDGSVAPKERINIRYVPATGDTQEDVELPLSMMVVGDFTARADETPIEERTPINIDKDNFNDVLEGMSPNVKVNVENRLSDEEGAQIGVDLTFQNMKDFSPEAIAKSVPELNSLLELREALVALKGPLGNVPAFRKKIASVLQDEEARKKLLDELSIGNDQDAKEE | soluble
16 | MNRKIERMIIELEKECKAQNVELLLCATNFETGQGSTAFCGSVIGLAILLQKLVGDLKEQLSISESCDCPECVAEKAEDAANEKSMDELLTAFLRGELQ | not soluble
17 | SVHPALEFSDCYSDSPDFRERLKCYENELEKTNKFLKDVIKDGNNVINTFKEYSLAVQKFSQTLQSFQFDFIGDTLTDDEMNIAESFREFAGLLQDVEEARMMLVQNASDLLIKPLEKFRKEQIGVTKERRKKFEKESEKYYSQLDKHVNLSSKKKETQLQEADEQLDKERQAFYESSVEYVYQIQQVQEKKKFDVVEPVLAFLQSILTLNNLTVEMYTFRNKGTKCNTGEIPFQKVQFCTIQVDISTFMVHFCTFKLYFCTFKIP | soluble
18 | MTDYAHKMSLDLRMIDLERYSDHIDNKASHCAKMLNDYYQKFDAQKGTQFVFSDLGTYKPGGEFNVYSEIKRKLVEDYHIPSHEVRFIQECKNEKAKKAMVDAMNRGDIRIIFGSTSMLGTGVNAQQRAVAIHHLDTPWRPSDLEQRNGRAVRKGNMIAKEFADNKVDVIIYAVERSLDSYKFNLLHNKQLFINQLKTNTLGSRTIDEGSMDEDGGMNFSEYVAVLSGNTNLLEKAKLDKKIATLESERKNFLRERDTATGKLAEIDSSVSFHSDKIKEAKEDLACFEKRVERDAEGLPINKLTIKGVEGSTDIKVIAARLQEIEEKARTKGEYNKIGEIYGFSIMVKTENSSKELFDCSSNRFFVKGQESIYYTYNNGKLASDPKLACQNFINALERIPKVIESHEKEKEKVSANKEVYMTIAGGSWKKEDELRSLKGQAAELDRKIALTLAPPEEEKETEEEKQVQEHGISGKEPIQETRYSAEPISHKQAEKTPPSEQVTPPPTRQPRSNEPGGYIETQMEIG | not soluble
19 | MSLRPTMTDIAKLTGVSQSTVSLVLNNATGAKFSETTRNKVLKAAHDLGYRLSLREPVSASADERNLIVYLADEISTSPHPVVNIDGARDAAYASGKMLAVYSTHGNADIEKQVLDTTLSNPHVFGVIYATVYTRKVTPPAALSQVPTVLLNCYTGEGGFSSVVPAEVAGGHLATDYLLQSGHRRIGYINGEPWQDASKDRLKGYRTALATADLPFAQEMVRDGDWSSGLGFELTLSLMRESNPPTAIFCANDLTAIGAIEALKQLGLRVPEDVSVLGYDDQEIARHTHPPLSTVVLPNYELGRWAVETLLQEEHNRAAGAPVRHRMVKLDGPLVERGSVRVITEAKEGHHHHHH | soluble
20 | MAHHHHHHMENILSKVDKIEPFDPKVKEQYNQFKYDVTKQAIESLRERIPQRIIYFNTLVNVNAEPGSILDVRDLDTKTYKYTSNQTEENARKKHKTSDHNVTEKKKDSIEMNTQNDINYEEKKIVIDENIIYTHYVPSHKQISAELEKIKAYSSELIEIIGNIKLWIQLNVPRIEDGNNFGVGIQEEAIQELARVEESAFNLYDAIVKYYMDRAKLATKVIKYPNVHDYQEAVQELDKKEWIHIKITIIDMRNNYIMLYDLLCKNWEKVVKPKNEDAHHRMTF | soluble
21 | MEKYEELFARIKEKAKLIDEKIFELIPEKDPRVLYEAARHYPLAGGKRVRPFVVLTSTEAVGGDPLRAIYPAVAIELIHNYSLVHDDIMDMDETRRGKPTVHRIWGVNMAILAGDLLFSKAFEAVARAEIPPEKKARVLEVIVKASNELCEGQARDLEFEKKSTVTIEEYMEMISGKTGALFEASAKVGGIIGTDNEEYIKALSSWGRNVGIAFQIWDDVLDLIADEKKLGKPVGSDIRKGKKTLIVAHFFENADEKDKQRFLKIFGKYAGDVKGRGIIEEDIKSDVMEAIDLLKKYGSIDYAAEIAKDMIKKANEALRILPKSKARMDLELLAKFIVEREY | soluble
